PMC7264293, “Multi-site-mediated entwining of the linear WIR-motif around WIPI β-propellers for autophagy” (Nature Communications, 2020)
No end group written: not given here.

Key:
[1] = target: T1, WIPI3-Δloop (Homo sapiens, UniProt Q5MNZ6, DEL264-281/DEL75-80); assay: ITC assay, WIR-peptide and its mutants binding to WIPI3-Δloop; conditions: WIPI3-Δloop (Fig. 3e, Supplementary Figs. 6, 7)
T1 construct: GB1-His6 (cleaved yes); made in house; host or cells: Escherichia coli BL21(DE3)
Procedure: (§1) DNA sequences encoding human WIPI3, WIPI3-Δloop, and two ATG2A fragments (1358–1404 and 1374–1404) were each cloned into a modified pET32a vector. The generation of the fusion construct of WIPI3-Δloop with ATG2A(1374–1404) and the mutations in WIPI3 and the ATG2A fragment were performed by using the standard PCR-based mutagenesis method and confirmed by DNA sequencing. All the primers used in the study were listed in Supplementary Table 3. Recombinant proteins were expressed in Escherichia coli BL21(DE3) (Invitrogen, C6000-03) host cells at 16 °C. […] The eluted proteins were further purified by size-exclusion chromatography (Superdex-200 26/60, GE healthcare). For WIPI3 proteins, after cleavage of the tag, the resulting proteins were purified by another step of size-exclusion chromatography with the buffer containing 50 mM Tris-HCl, pH 8.0, 100 mM NaCl, 1 mM EDTA, 1 mM DTT. For ATG2A fragments, recombinant proteins were purified in the same buffer without cleavage of the tag.
ITC assay was performed using a MicroCalorimeter ITC200 (GE Healthcare Life Sciences, USA) at 25 °C. Prior to the experiment, the protein samples were dialyzed in the buffer containing 50 mM Tris-HCl, pH 8.0, 100 mM NaCl, 1 mM EDTA, and 1 mM DTT. WIPI3 proteins were put in the sample cell and GB1-tagged ATG2A fragments were in the syringe of the instrument. In each experiment, the ATG2A fragment was sequentially injected into the stirred calorimeter cell initially containing the WIPI3 protein sample with the injection sequence of 20 × 2 µl at 2-min intervals. The heat of dilution obtained by the titration of the ATG2A fragment into the buffer was subtracted. The integrated, corrected, and concentration-normalized peak areas of the raw data were finally fitted with a model of one binding site using ORIGIN 7.0 (OriginLab).

[2] = system: NRK cells with double knock out of ATG2A/ATG2B and stable expression of GFP-LC3; assay: Autophagic flux in ATG2A/ATG2B DKO NRK cells in the presence of bafilomycin A1; type: cell-based, rat; conditions: ATG2A/ATG2B-depleted NRK cells without ATG2A transfection; 10 nM, 2 h
Procedure: NRK cells with double knock out of ATG2A/ATG2B and stably transfected with GFP-LC3 were generous gifts from L.Y., Tsinghua University. DNA sequences encoding full-length ATG2A and its various mutants were cloned into the pCAG-Tandem-Strep-Flag vector. Cells were cultured in DMEM (GIBCO) supplemented with 10% (v/v) fetal bovine serum, 100 U/ml penicillin and 0.1 mg/ml streptomycin and were grown at 37 °C in a humidified atmosphere containing 5% (v/v) CO2. Cells were transfected with wild-type ATG2A and various mutants by the electroporation apparatus (Bio-Rad) according to the manufacturer’s instructions. After 48 h, cells were washed three times by PBS and fixed by 4% (w/v) paraformaldehyde. […] ATG2A and its various mutants were detected by immunofluorescence with the anti-Flag primary antibody (Sigma-Aldrich, F1804, 1:300 dilution) and dylight 594 secondary antibody (EarthOx, E032410-01, 1:500 dilution). Fluorescence images were obtained on an inverted confocal microscope (LSM 880, Carl Zeiss) equipped with a 100 × oil-immersion objective lens (NA = 1.30). […] All the fluorescence images were processed and analyzed using the ZEN imaging software (Carl Zeiss). […]
μm. (b) Quantification of the increment of LC 3 -positive structures with bafilomycin […]
A1 treatment. The increment o f LC 3 -positive structures per cell was quantified with […]
used for quantifi cation (n = 3) . […]

[3] = system: WIPI3-Δloop N19A/D21A; assay: ITC assay, WIR-peptide binding to WIPI3-Δloop N19A/D21A; set-up: species or system human; conditions: WIPI3-Δloop N19A/D21A mutant (Supplementary Fig. 5b)
Procedure: as §1
ITC assay was performed using a MicroCalorimeter ITC200 (GE Healthcare Life Sciences, USA) at 25 °C. […]
Supplementary Fig. 5 Structural analysis of the A -B loop of blade 1. […] (b) The binding affinity between the W IR -pept ide and th e W IP I3 -Δloop N19A/D21 A mutant determined b y IT C ex periments. […]

[4] = system: NRK cells with double knock out of ATG2A/ATG2B and stable expression of GFP-LC3; assay: LC3-positive structures in ATG2A/ATG2B DKO NRK cells transfected with ATG2A; type: cell-based, rat; conditions: transfection of full-length ATG2A into ATG2A/B-depleted NRK cells
Procedure: NRK cells with double knock out of ATG2A/ATG2B and stably transfected with GFP-LC3 were generous gifts from L.Y., Tsinghua University. DNA sequences encoding full-length ATG2A and its various mutants were cloned into the pCAG-Tandem-Strep-Flag vector. Cells were cultured in DMEM (GIBCO) supplemented with 10% (v/v) fetal bovine serum, 100 U/ml penicillin and 0.1 mg/ml streptomycin and were grown at 37 °C in a humidified atmosphere containing 5% (v/v) CO2. Cells were transfected with wild-type ATG2A and various mutants by the electroporation apparatus (Bio-Rad) according to the manufacturer’s instructions. After 48 h, cells were washed three times by PBS and fixed by 4% (w/v) paraformaldehyde. For bafilomycin A1 treatment, cells were cultured in the complete medium containing 10 nM bafilomycin A1 for 2 h before being fixed. ATG2A and its various mutants were detected by immunofluorescence with the anti-Flag primary antibody (Sigma-Aldrich, F1804, 1:300 dilution) and dylight 594 secondary antibody (EarthOx, E032410-01, 1:500 dilution). Fluorescence images were obtained on an inverted confocal microscope (LSM 880, Carl Zeiss) equipped with a 100 × oil-immersion objective lens (NA = 1.30). Confocal settings used for image capture were held constant in comparison experiments. All the fluorescence images were processed and analyzed using the ZEN imaging software (Carl Zeiss). […]

T1 sequence (Q5MNZ6 with tags, fused parts or gaps DEL75-80/DEL264-281): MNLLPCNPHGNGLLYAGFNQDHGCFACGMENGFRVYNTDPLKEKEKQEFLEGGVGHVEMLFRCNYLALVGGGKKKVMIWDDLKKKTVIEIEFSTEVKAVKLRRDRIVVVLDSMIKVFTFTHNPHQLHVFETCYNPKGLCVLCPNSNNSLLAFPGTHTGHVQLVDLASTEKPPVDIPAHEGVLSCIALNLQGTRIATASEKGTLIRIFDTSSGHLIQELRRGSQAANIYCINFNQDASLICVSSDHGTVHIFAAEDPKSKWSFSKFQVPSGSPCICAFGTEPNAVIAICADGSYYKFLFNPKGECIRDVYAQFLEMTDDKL

Compound	effect of the WIR-peptide mutation on the binding, in words [1]	other results
WIR-peptide V1380A: WIR-peptide with V1380A point mutation (PRDGEPAVTQLHPGPIVVRDGYFSRPIGSTD; also: GB1 tag, end not given here, His6 tag, end not given here)	affected the binding	–
WIR-peptide D1393A: WIR-peptide with D1393A mutation (PRDGEPVVTQLHPGPIVVRAGYFSRPIGSTD; also: GB1 tag, end not given here, His6 tag, end not given here)	disrupted the binding	–
CO/C1=C\C(C)=C\[C@@H](C)[C@@H](O)[C@@H](C)C/C(C)=C/C=C/[C@H](OC)[C@@H]([C@@H](C)[C@@H](O)[C@H](C)[C@@]2(O)C[C@@H](O)[C@H](C)[C@@H](C(C)C)O2)OC1=O [bafilomycin A1]	–	increase of LC3-positive structures in the presence of bafilomycin A1, in words [2]: No obvious increase
WIR-peptide: GB1-tagged recombinant short fragment (1374–1404) of ATG2A, minimum WIPI-interacting region (PRDGEPVVTQLHPGPIVVRDGYFSRPIGSTD; also: GB1 tag, end not given here, His6 tag, end not given here)	–	binding of the WIR-peptide, in words [3]: abolished the binding
ATG2A WT: full-length wild-type ATG2A, Tandem-Strep-Flag-tagged, expressed by transfection	–	rescue of the depletion defect (large LC3-positive clusters), in words [4]: could rescue the depletion defect
WIR-peptide V1391Q: WIR-peptide with V1391Q point mutation (PRDGEPVVTQLHPGPIVQRDGYFSRPIGSTD; also: GB1 tag, end not given here, His6 tag, end not given here)	severely impaired the binding	–
WIR-peptide V1381A: WIR-peptide with V1381A point mutation (PRDGEPVATQLHPGPIVVRDGYFSRPIGSTD; also: GB1 tag, end not given here, His6 tag, end not given here)	decreased the binding more severely	–
